This data set deals with T1, hORC1(413-511) (Homo sapiens, UniProt Q13415 413-511).
T1 sequence: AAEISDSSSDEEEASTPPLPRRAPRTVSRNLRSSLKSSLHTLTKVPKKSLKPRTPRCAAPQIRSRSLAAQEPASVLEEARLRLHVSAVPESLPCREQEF
Put plainly: fluorescence anisotropy; 100 mM KCl; FA: 20 mM HEPES-KOH pH 7.7, 100 mM KCl (or LiCl), 1 mM EDTA, 1 mM DTT, 25 C, 2 uM DNA, 1:1 fit; NMR: same buffer with 10% D2O, 10 uM DSS, 75 uM DNA, 25 C. To be noted: protein: recombinant, tags: N-terminal GST (pGEX-6P-1) removed with PreScission protease.

[1] abbreviates: label: 5'-FAM, G4, multiple folds, 1 strand.

The text below walks through data of article PMC8036949, “Investigation of the Interaction of Human Origin Recognition Complex Subunit 1 with G-Quadruplex DNAs of Human c-myc Promoter and Telomere Regions”.

Usually Kd stands for the equilibrium constant for the complex coming apart.

B1: dsDNA (dsDNA)
DNA 1: AAATTTAAAAAAAAAAATAATT
DNA 2: AATTATTTTTTTTTTTAAATTT
As for B1, the Kd (label: 5'-FAM on strand 1, blunt) came out at 1910 nM.

B2: teloDNA (structured_DNA)
DNA: TTGGGTTAGGGTTAGGGTTAGGGA
Consider B2, for which the Kd (label: 5'-FAM (FA), label in NMR not clear, (3+1) G4 in K+, 1 strand) was 227 ± 23.6 nM.

B3: wtPu19 (structured_DNA)
DNA: TGGGGAGGGTGGGGAGGGT
Consider B3, for which the Kd under setting [1] was found to be 45.2 nM.

B4: wtPu22 (structured_DNA)
DNA: TGAGGGTGGGGAGGGTGGGGAA
On to B4, for which the Kd under setting [1] was determined as 166 nM.

B5: mtPu19 (structured_DNA)
DNA: TAGGGAGGGTAGGGAGGGT
Consider B5, for which the Kd (label: 5'-FAM, parallel G4, 1 strand) was 446 ± 308 nM.

B6: mtPu22 (structured_DNA)
DNA: TGAGGGTGGGTAGGGTGGGTAA
As for B6, the Kd (label: 5'-FAM (FA), label in NMR not clear, parallel G4, 1 strand) turned out to be 310 ± 39.2 nM.
